In patent publication US20160200814A1, “IMMUNORECEPTOR MODULATION FOR TREATING CANCER AND VIRAL INFECTIONS” (THE COUNCIL OF THE QUEENSLAND INSTITUTE OF MEDICAL RESEARCH, priority 2013, published 2016):

Target: T1, CD155 at the cell surface of B16F10 (Mus musculus, UniProt F6V4I7)
T1 construct: at the cell surface of B16F10 cells; endogenous in cells; host or cells: B16F10 melanoma cells
T1 sequence (F6V4I7 29-408): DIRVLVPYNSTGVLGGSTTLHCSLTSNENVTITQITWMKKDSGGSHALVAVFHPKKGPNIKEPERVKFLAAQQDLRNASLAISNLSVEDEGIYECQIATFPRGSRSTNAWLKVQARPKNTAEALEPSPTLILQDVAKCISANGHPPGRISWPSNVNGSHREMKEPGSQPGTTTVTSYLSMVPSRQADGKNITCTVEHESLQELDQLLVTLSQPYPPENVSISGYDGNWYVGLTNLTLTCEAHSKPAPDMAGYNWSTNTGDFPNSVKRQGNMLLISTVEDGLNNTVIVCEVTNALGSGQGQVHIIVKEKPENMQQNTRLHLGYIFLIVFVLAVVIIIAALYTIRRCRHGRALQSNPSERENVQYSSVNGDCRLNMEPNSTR
Experiment: Binding of DNAM-1-Fc (AF-647) at the cell surface of B16F10 cells, flow cytometry
Conditions: FIG. 3c; DNAM-1-Fc AF-647 0.5-20 μg/ml; competitor 50 μg/ml; versus control Ig
Excerpt: FIG. 3: CD96 limits NK cell-dependent tumor immunosurveillance. a, b. CD96 and DNAM-1 have an opposite role in the control of B16F10 metastasis. a. 2×10^5 B16F10 cells were intravenously injected into WT, CD96^−/−, DNAM-1^−/− and DNAM-1^−/− CD96^−/− mice and metastatic burden was quantified in the lungs after 14 days. Representative experiment out of 3. b. Pictures showing the lung of WT and CD96^−/− mice two weeks after the injection of 2×10^5 and 5×10^5 B16F10 cells. Representative experiment out of two. c. […] The binding of DNAM-1-Fc labeled with AF-647 (0.5-20 μg/ml) at the cell surface of B16F10 cells was analyzed in the presence of 50 μg/ml of control Ig, recombinant CD96 or TIGIT-Fc. The FACS histograms and the mean±SD of triplicate wells from one representative experiment out of 3 are shown. d. A 4 hr^51 Cr release assay was performed between B16F10 cells and IL-2-activated NK cells from WT, DNAM-1^−/− and CD96^−/− mice at the indicated effector target ratios. Solid circles represent WT NK cells, open circles represent CD96^−/− NK cells and solid squares represents DNAM-1^−/− NK cells. e-h. CD96 and DNAM-1 have an opposite role in the immunosurveillance of MCA induced fibrosarcoma mediated by NK cells. e-h Groups of 15-30 male, WT, DNAM-1^−/− and CD96^−/− and DNAM-1^−/− CD96^−/− mice were injected with MCA (100 μg/mouse). […]

B1: recombinant CD96: recombinant CD96 protein used at 50 μg/ml as competitor of DNAM-1-Fc binding (protein, UniProt P40200 22-585, looked up)
T-cell surface protein tactile: VWEKTVNTEENVYATLGSDVNLTCQTQTVGFFVQMQWSKVTNKIDLIAVYHPQYGFYCAYGRPCESLVTFTETPENGSKWTLHLRNMSCSVSGRYECMLVLYPEGIQTKIYNLLIQTHVTADEWNSNHTIEIEINQTLEIPCFQNSSSKISSEFTYAWSVENSSTDSWVLLSKGIKEDNGTQETLISQNHLISNSTLLKDRVKLGTDYRLHLSPVQIFDDGRKFSCHIRVGPNKILRSSTTVKVFAKPEIPVIVENNSTDVLVERRFTCLLKNVFPKANITWFIDGSFLHDEKEGIYITNEERKGKDGFLELKSVLTRVHSNKPAQSDNLTIWCMALSPVPGNKVWNISSEKITFLLGSEISSTDPPLSVTESTLDTQPSPASSVSPARYPATSSVTLVDVSALRPNTTPQPSNSSMTTRGFNYPWTSSGTDTKKSVSRIPSETYSSSPSGAGSTLHDNVFTSTARAFSEVPTTANGSTKTNHVHITGIVVNKPKDGMSWPVIVAALLFCCMILFGLGVRKWCQYQKEIMERPPPFKPPPPPIKYTCIQEPNESDLPYHEMETL
  competition with DNAM-1-Fc binding to CD155: compete with DNAM-1 for the binding of CD155 at the cell surface of B16F10
